Laboratory results: patent US9073976B2, “ND2 peptides and methods of treating neurological disease” (NoNO Inc., priority 2010, dated 2015)

What was measured:
[1] = target: T1, binding of biotinylated Src40-49 to Tat-ND2 310-321 (Homo sapiens, UniProt P03891); assay: Competition ELISA, binding of biotinylated Src40-49 to pre-coated Tat-ND2 310-321; conditions: FIG. 5E
T1 construct: 10; Tat-ND2 310-321; […]
Procedure: Competition ELISAs were also performed. […] In a similar manner, ND2 constructs bearing amino acid sequences from the 300-321 region are able to act as inhibitors of the interaction between ND2 and Src.

[2] = target: T2, ND2, Src, NMDAR subunits, and PSD95 in hippocampal neurons (Rattus norvegicus, UniProt P11662+Q9WUD9); assay: Immunocytochemistry colocalization in 14DIV hippocampal neurons; format: cell-based; conditions: 1 uM peptide for 1 h, day 14 neurons
T2 construct: endogenous in cells; host or cells: primary hippocampal neurons from E17/E18 Wistar rats, 14 DIV
Procedure: A series of experiments was performed to examine the localization of ND2, Src, NMDAR subunits, and PSD95 in hippocampal neurons by immunocytochemistry in the presence of Tat, Tat-ND2 310-321, or Src 40-49-Tat. Briefly, hippocampal neurons were isolated from embryonic day #17/E18 Wistar rats, and cultured in neurobasal media containing coverslips with B27 and glutamax. Cells were then treated for 1 hr with luM peptide before fixing by standard methods. Proteins were visualized using specific antibodies and secondary antibodies coupled to fluorescent molecules. Colocalization of fluorescence was calculated by merging the images in Photoshop and calculating the % colocalized between pairs as the total colocalized fluorescence clusters divided by the total number of clusters (e.g., % colocalized ND2 with Src=(total colocalized)/(total ND2 clusters); % colocalized Src with ND2=(total colocalized)/(total Src clusters)).
Hippocampal neurons cultured on coverslips were treated with 1 uM of Src 40-49-Tat, Tat-ND2 310-321 or Tat for 1 h at the day 14. Then neurons were incubated in 4% paraformaldehyde and 4% sucrose in phosphate-buffered saline (PBS) for 10 minutes followed by 5 minutes […] at room temperature (RT). Cells were permeabilized with 0.25% Triton X-100 in PBS for 5 minutes and by treatment with 5% donkey serum in PBS for 30 minutes at RT. The cultures were incubated with a mixture of the primary antibodies, raised in various species, in 0.25% Triton X-100 PBS for 2 hours at RT, washed, and incubated for 1 hour at RT with a mixture of species-specific secondary antibodies all raised in donkey and conjugated to either Texas Red, or FITC fluorophores (1:200 dilution in 0.25% Triton X-100 PBS). The coverslips were washed with PBS and mounted using ProLong Gold antifade reagent (Invitrogen). Images were collected using a 60× pan-fluor objective on a Nikon Eclipse TE 200 microscope. The images were analyzed with PhotoShop 7 (Adobe, San Jose, Calif.). Brightness and contrast were adjusted, sharpened using the unsharpen mask tool, and the images were merged for color colocalization.
For quantification of the colocalization, the maximum intensities of the fluorophore channels were normalized and the background fluorescence of each channel seen in the dendrites was subtracted, the color images were merged. Two clusters in two different channels were considered colocalizing when at least 66% of the surface of one clusters in one of the two channels overlapped with a clusters in the other channel. For each combination of antibodies, three independent immunofluorescence experiments were done. Each measurement was taken from a 50-m-long dendritic segment (with an average width of 2 m). Colocalization was expressed as the percent of the total clusters analyzed.

[3] = target: T3, NMDAR signaling complex in cultured hippocampal neurons (Rattus norvegicus, UniProt P11662+Q9WUD9); assay: Co-immunoprecipitation from cultured hippocampal neurons; format: cell-based; conditions: IP anti-NR2B; 1 uM for 1 hour or 3 uM for 2 hours
T3 construct: endogenous in cells; host or cells: primary hippocampal neurons from E17/E18 Wistar rats, 14 DIV
Procedure: We next examined the effect of Tat-ND2 310-321 and Src40-49-Tat on the association of proteins in the NMDAR signaling complex in cultured hippocampal neurons at 14DIV. Neurons were treated with Tat-ND2 310-321 or Src40-49 at 1 uM for 1 hour (FIG. 13A) or at 3 uM for 2 hours (FIG. 13B). Cell lysates were purified and immunoprecipitated with anti-NR2B (left) and then stained with anti NR2B, anti-PSD95, anti-Src and anti-ND2 antibodies.
NMDAR and its associated proteins were prepared from cultured hippocampal (HP) neurons or rat brains. For in vitro competition experiments, two week HP neurons were collected after treatment with Src 40-49-Tat, Tat-ND2 310-321 or Tat peptides for 1 h at luM concentration or for 2 hours at 3 uM concentration then cells were quickly harvested and homogenized.
Lysates were incubated with Dynabeads protein G (Invitrogen) and selected antibodies for 30 minutes at room temperature. Isolated immunoprecipitates were resolved using SDS-PAGE and transferred to nitrocellulose membranes. The membranes were probed with selected detection antibodies, then stripped and reprobed with other detection antibodies.

[4] = target: T4, NMDA Receptor complex in rat brains subjected to 3PVO (Rattus norvegicus, UniProt P11662+Q9WUD9); assay: Co-immunoprecipitation from rat brains subjected to 3PVO stroke; format: in vivo; conditions: injection 1 hour post-surgery, harvest 2 hours post-surgery; compared with Tat-ND2 310-321
T4 construct: from tissue; host or cells: rat brain cortex (ipsilateral and contralateral hemispheres) after 3PVO ischemia
Procedure: The status of these proteins was next examined in rat brains that had been subjected to a 3PVO stroke. After 3PVO ischemia, rodents were given either Tat-ND2 310-321 or saline via tail vein injection. At one hour post-surgery, the brains were quickly harvested and lysed. Following IP with anti NR2B antibodies, the membranes were incubated with anti phosphotyrosine antibodies, developed, and subsequently probed with anti Src, phosphorylated Src (pTys) and anti PSD95 antibodies. As an internal control, both the ipsilateral and contralateral hemispheres (I and C, respectively) were prepared.
A second set of experiments was performed on animals subjected to 3PVO, modified such that the saline, Src 40-49-Tat or Tat-ND2 310-321 was administered by tail vein injection 1 hour post-surgery and the brains were harvested and lysed 2 hours post-surgery.
For in vivo experiments, one hour after 3PVO ischemia, rats were injected with indicated peptides or saline by intravenous tail vein. Two hours after surgery (one hour after administration of compounds), the selected cortex of the brain was quickly harvested and homogenized.
Lysates were incubated with Dynabeads protein G (Invitrogen) and selected antibodies for 30 minutes at room temperature. Isolated immunoprecipitates were resolved using SDS-PAGE and transferred to nitrocellulose membranes. […]

[5] = test system: association of Src and ND2; conditions: Liu et al. 2008; cited from earlier work
NMDA currents = conditions: Liu et al. 2008; cited from earlier work
[6] = test system: Formalin, CFA and peripheral nerve constriction pain models; conditions: Liu et al. 2008; cited from earlier work
ND2 310-321 = target: T5, ND2 310-321 (Homo sapiens, UniProt P03891); assay: Dot blot of Src fragments probed with biotinylated ND2 310-321; format: binding; conditions: FIG. 5A
T5 construct: 7; NVKMKWQFEHTK
Procedure: Src40-49-Tat indicate a fusion peptide in which the human HIV-1 tat protein transduction domain [[…]] […] (SEQ ID NO:10). […] The peptides were plated at a concentration of ˜5 uM.

rats subjected to 3PVO = assay: Three pial vessel occlusion (3PVO) model of stroke, infarct volume; format: in vivo, rat; conditions: 3 nmol/g intravenous one hour post-surgery; 24 hours after surgery; n=10
Procedure: The efficacy of ND2 inhibitors in the treatment of stroke was examined using the three pial vessel occlusion (3PVO) model of stroke. This is a permanent model of stroke that creates small but consistent infarcts at 24 hours.
Male Sprague Dawley rats (n=10 in each group) were surgically subjected to permanent occlusion of the pial vessels. One hour post-surgery, animals were given an intravenous injection of Saline, Tat-NR2B9c (Aarts et al, Science, 2002), Src 40-49-Tat or Tat-ND2 310-321 and allowed to further recover in their cages. 24 hours after surgery, brains were harvested, sliced and incubated with TTC to visualize the areas of infarction. The infarct volume of each animal was determined, as well as the average volumes for each group of ten.
Both peptides were myristoylated via an amide bond to the alpha-amino group of the N-terminal amino acid of the peptide.
Male Sprague Dawley rats (n=10 in each group) weighing between 230 and 290 g were used for this study. Experiments were performed on fasted rats (Free overnight access to water but not food). For permanent three pial vessel occlusion (3PVO) was performed as described previously (Forder J et al., 2005, supra). In brief, rats were anesthetized with a 0.5 ml/kg intramuscular injection of ketamine (100 mg/kg), acepromazine (2 mg/kg), and xylazine (5 mg/kg), supplemented with one-third of the initial dose as required. An anal temperature probe was inserted, and the animal was placed on a heating pad maintained at 37° C. The skull was exposed via a midline incision and scraped free of tissue. Using a dissecting microscope and a pneumatic dental drill, a 6- to 8-mm cranial window was made over the right somatosensory cortex (2 mm caudal and 5 mm lateral to bregma) by drilling a rectangle through the skull and lifting off the piece of skull while keeping the dura intact. The 3 pial arteriolar middle cerebral artery branches around the barrel cortex were selected and electrically cauterized through the dura. After the cauterizations, the scalp was sutured. […]

T1 sequence (P03891 other isoform, or with tags, fused parts or gaps): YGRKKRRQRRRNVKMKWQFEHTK

KPASADGHRGYGRKKRRQRRR [Src 40-49-Tat]
inhibition of binding of biotinylated Src40-49 to Tat-ND2 310-321 (competition ELISA) [1]: inhibited
association (colocalization) between ND2 and NR2B [2]: do not significantly affect
colocalization between PSD95 and NR2B [2]: similarly disrupted
colocalization of ND2 with PSD95 [2]: reduces the colocalization of ND2 with PSD95
colocalization of Src and ND2 [2]: able to reduce the amount of colocalization of Src and ND2
colocalization between NR2B and Src ([2]; FIG. 10): able to reduce the colocalization
colocalization between PSD95 and Src ([2]; FIG. 11): able to reduce the colocalization
association of NR2B with Src [3]: reduces the association of NR2B with Src
uncoupling PSD95 and Src from the NMDA Receptor [4]: not nearly as effective
association of Src and ND2 in neuronal lysates [5]: disrupt the association of Src and ND2 in neuronal lysates
NMDA currents (NMDA currents): reduced NMDA currents
effect on inflammatory and neuropathic pain [6]: beneficial effect
binding of biotinylated ND2 310-321 (dot blot) (ND2 310-321): bound ND2 310-321
reducing infarct volumes (statistical effect) (rats subjected to 3PVO): not statistically effective
